Laboratory results: the supplement of paper PMC11246515
± gives the standard deviation of the averaged measurements.

Test: total protein half-life in vivo (active degradation + dilution); higher = more stable protein
[1] = E. coli NCM3722 delta-clpP delta-lon delta-hslV, growth: N-lim chemostat, doubling time 6 h
[2] = E. coli NCM3722 delta-clpP, growth: N-lim chemostat, doubling time 6 h
[3] = E. coli NCM3722 delta-hslV, growth: N-lim chemostat, doubling time 6 h
[4] = E. coli NCM3722 delta-lon, growth: N-lim chemostat, doubling time 6 h
[5] = E. coli NCM3722 delta-smpB, growth: N-lim chemostat, doubling time 6 h
[6] = wild type E. coli NCM3722, growth: C-lim chemostat, doubling time 3 h
[7] = wild type E. coli NCM3722, growth: C-lim chemostat, doubling time 6 h
[8] = wild type E. coli NCM3722, growth: C-lim chemostat, doubling time 12 h
[9] = wild type E. coli NCM3722, growth: N-lim chemostat, doubling time 6 h
[10] = wild type E. coli NCM3722, growth: N-lim chemostat, doubling time 12 h
[11] = wild type E. coli NCM3722, growth: P-lim chemostat, doubling time 6 h
[12] = wild type E. coli NCM3722, growth: P-lim chemostat, doubling time 12 h

Row | Sequence | total protein half-life in vivo [1] [h] | total protein half-life in vivo [2] [h] | total protein half-life in vivo [3] [h] | total protein half-life in vivo [4] [h] | total protein half-life in vivo [5] [h] | total protein half-life in vivo [6] [h] | total protein half-life in vivo [7] [h] | total protein half-life in vivo [8] [h] | total protein half-life in vivo [9] [h] | total protein half-life in vivo [10] [h] | total protein half-life in vivo [11] [h] | total protein half-life in vivo [12] [h]
1 | MSEQLTDQVLVERVQKGDQKAFNLLVVRYQHKVASLVSRYVPSGDVPDVVQEAFIKAYRALDSFRGDSAFYTWLYRIAVNTAKNYLVAQGRRPPSSDVDAIEAENFESGGALKEISNPENLMLSEELRQIVFRTIESLPEDLRMAITLRELDGLSYEEIAAIMDCPVGTVRSRIFRAREAIDNKVQPLIRR [P0AGB6] | 5.283 ± 0.0063 | 6.37 ± 0.46 | 6.86 ± 0.17 | 7.1 ± 0.53 | 6.14 ± 0.71 | 3.49 ± 0.3 | 5.85 ± 0.13 | 11.8 ± 1.1 | 5.76 ± 0.9 | 11.3 ± 1.4 | 5.63 ± 0.5 | 12.6 ± 0.15
2 | MSERLSITPLGPYIGAQISGADLTRPLSDNQFEQLYHAVLRHQVVFLRDQAITPQQQRALAQRFGELHIHPVYPHAEGVDEIIVLDTHNDNPPDNDNWHTDVTFIETPPAGAILAAKELPSTGGDTLWTSGIAAYEALSVPFRQLLSGLRAEHDFRKSFPEYKYRKTEEEHQRWREAVAKNPPLLHPVVRTHPVSGKQALFVNEGFTTRIVDVSEKESEALLSFLFAHITKPEFQVRWRWQPNDIAIWDNRVTQHYANADYLPQRRIMHRATILGDKPFYRAG | 4.38 ± 0.24 | 4.17 ± 3.1 | 2.39 ± 0.83 | 2.1 | 2.36 ± 0.22 | 2.88 ± 0.46 | 4.02 | 5.19 ± 0.73 | 1.58 | 2.31 ± 0.34 | 4.3 | 7.36 ± 0.57
3 | MSETAKKVIVGMSGGVDSSVSAWLLQQQGYQVEGLFMKNWEEDDGEEYCTAAADLADAQAVCDKLGIELHTVNFAAEYWDNVFELFLAEYKAGRTPNPDILCNKEIKFKAFLEFAAEDLGADYIATGHYVRRADVDGKSRLLRGLDSNKDQSYFLYTLSHEQIAQSLFPVGELEKPQVRKIAEDLGLVTAKKKDSTGICFIGERKFREFLGRYLPAQPGKIITVDGDEIGEHQGLMYHTLGQRKGLGIGGTKEGTEEPWYVVDKDVENNILVVAQGHEHPRLMSVGLIAQQLHWVDREPFTGTMRCTVKTRYRQTDIPCTVKALDDDRIEVIFDEPVAAVTPGQSAVFYNGEVCLGGGIIEQRLPLPV | 4.81 ± 0.17 | 4.73 ± 0.56 | 4.73 ± 0.06 | 5.33 ± 0.43 | 4.71 ± 0.32 | 2.89 ± 0.46 | 7.28 ± 0.86 | 10.4 ± 1.7 | 4.77 ± 0.39 | 8.691 ± 0.075 | 5.5 ± 0.061 | 12 ± 1.4
4 | MSEVEFSHEYWMRHALTLAKRAWDEREVPVGAVLVHNNRVIGEGWNRPIGRHDPTAHAEIMALRQGGLVMQNYRLIDATLYVTLEPCVMCAGAMIHSRIGRVVFGARDAKTGAAGSLMDVLHHPGMNHRVEITEGILADECAALLSDFFRMRRQEIKAQKKAQSSTD | 5.35 ± 0.49 | – | > 8 | 4.63 | – | – | – | – | – | – | > 8 | 10.7 ± 0.33
5 | MSFDIAKYPTLALVDSTQELRLLPKESLPKLCDELRRYLLDSVSRSSGHFASGLGTVELTVALHYVYNTPFDQLIWDVGHQAYPHKILTGRRDKIGTIRQKGGLHPFPWRGESEYDVLSVGHSSTSISAGIGIAVAAEKEGKNRRTVCVIGDGAITAGMAFEAMNHAGDIRPDMLVILNDNEMSISENVGALNNHLAQLLSGKLYSSLREGGKKVFSGVPPIKELLKRTEEHIKGMVVPGTLFEELGFNYIGPVDGHDVLGLITTLKNMRDLKGPQFLHIMTKKGRGYEPAEKDPITFHAVPKFDPSSGCLPKSSGGLPSYSKIFGDWLCETAAKDNKLMAITPAMREGSGMVEFSRKFPDRYFDVAIAEQHAVTFAAGLAIGGYKPIVAIYSTFLQRAYDQVLHDVAIQKLPVLFAIDRAGIVGADGQTHQGAFDLSYLRCIPEMVIMTPSDENECRQMLYTGYHYNDGPSAVRYPRGNAVGVELTPLEKLPIGKGIVKRRGEKLAILNFGTLMPEAAKVAESLNATLVDMRFVKPLDEALILEMAASHEALVTVEENAIMGGAGSGVNEVLMAHRKPVPVLNIGLPDFFIPQGTQEEMRAELGLDAAGMEAKIKAWLA | 5.82 ± 0.5 | 6.08 ± 0.29 | 5.79 ± 0.18 | 5.92 ± 0.57 | 5.36 ± 0.085 | 3.01 ± 0.11 | 6.16 ± 0.82 | 10.7 ± 1.4 | 5.82 ± 0.11 | 13.6 ± 0.63 | 6.55 ± 0.58 | 12.6 ± 0.56
6 | MSFDLIIKNGTVILENEARVVDIAVKGGKIAAIGQDLGDAKEVMDASGLVVSPGMVDAHTHISEPGRSHWEGYETGTRAAAKGGITTMIEMPLNQLPATVDRASIELKFDAAKGKLTIDAAQLGGLVSYNIDRLHELDEVGVVGFKCFVATCGDRGIDNDFRDVNDWQFFKGAQKLGELGQPVLVHCENALICDELGEEAKREGRVTAHDYVASRPVFTEVEAIRRVLYLAKVAGCRLHVCHVSSPEGVEEVTRARQEGQDVTCESCPHYFVLDTDQFEEIGTLAKCSPPIRDLENQKGMWEKLFNGEIDCLVSDHSPCPPEMKAGNIMKAWGGIAGLQSCMDVMFDEAVQKRGMSLPMFGKLMATNAADIFGLQQKGRIAPGKDADFVFIQPNSSYVLTNDDLEYRHKVSPYVGRTIGARITKTILRGDVIYDIEQGFPVAPKGQFILKHQQ | 4.05 | – | – | 3.35 | – | 1.23 ± 0.55 | 2.5 ± 0.8 | 2.38 ± 0.29 | – | – | – | 5.33
7 | MSFELPALPYAKDALAPHISAETIEYHYGKHHQTYVTNLNNLIKGTAFEGKSLEEIIRSSEGGVFNNAAQVWNHTFYWNCLAPNAGGEPTGKVAEAIAASFGSFADFKAQFTDAAIKNFGSGWTWLVKNSDGKLAIVSTSNAGTPLTTDATPLLTVDVWEHAYYIDYRNARPGYLEHFWALVNWEFVAKNLAA [P0AGD3] | 5.3 ± 0.47 | 5.56 ± 1.2 | 4.773 ± 0.02 | 6.2 ± 1.1 | 4.8 ± 0.58 | 3.18 ± 0.084 | 5.96 ± 0.084 | 11.6 ± 0.35 | 5.07 ± 0.39 | 9.76 ± 0.58 | 5.95 ± 0.27 | 12 ± 0.36
